Experimental data: patent publication US6429014B1, “Monoterpene synthases from grand fir (Abies grandis)” (Washington State University Research Foundation, priority 1997, dated 2002)

Key:
[1] = Monoterpene synthase assay and product identification with extracts of E. coli expressing Grand fir cDNA clones (Example 3); format: biochemical
Protocol: For expression, bacterial strains E. coil XLOLR/pAG3.18, E. coil XLOLR/pAG3.48, E. coli XL1-Blue/pGAG2.2, E. coli XL1-Blue/pGAG3.18, and E. coil BL21(DE3)/pSBAG10were grown to A600=0.5 at 37° C. in 5 ml of LB medium (Sambrock, J., Fritsch, E. F., and Maniatis, T. (1989) Molecular Cloning: A Laboratory Manual, 2d Ed., Cold Spring Harbor Laboratory, Cold Spring Harbor, N.Y.) supplemented with 100 μg ampicillin/ml or 30 μg kanamycin/ml as determined by the vector. Cultures were then induced by addition of 1 mM isopropyl-1-thio-β-D-galactopyranoside and grown for another 12 h at 20° C. Cells were harvested by centrifugation (2000×g, 10 min) and resuspended in either 1 ml monoterpene synthase assay buffer [50 mM Tris/HCl (pH 7.5), 500 mM KCl, 1 mM MnCl2, 5 mM dithiothreitol, 0.05% (w/v) NaHSO3 and 10% (v/v) glycerol], 1 ml sesquiterpene synthase assay buffer [10 mM dibasic potassium phosphate, 1.8 mM monobasic potassium phosphate (pH 7.3), 140 mM NaCl, 10 mM MgCl2, 5 mM dithiothreitol, 0.05% (w/v) NaHSO3 and 10% (v/v) glycerol], or 1 ml diterpene synthase assay buffer [30 mM Hepes (N-2-hydroxyethylpiperazine-N-′2-ethanesulfonic acid, pH 7.2), 7.5 mM MgCl2, 5 mM dithiothreitol, 10 µM MnCl2, 0.05% (w/v) NaHSO3 and 10% (v/v) glycerol].
Cells were disrupted by sonication (Braun-Sonic 2000 with microprobe at maximum power for 15 seconds at 0-4° C.), the homogenates were cleared by centrifugation (18,000×g, 10 min), and 1 ml of the resulting supernatant was assayed for monoterpene synthase activity with 2.5 μM of [1-^3H]geranyl diphosphate, for sesquiterpene synthase activity with 3.5 μM [1-^3H]farnesyl diphosphate, or for diterpene synthase activity with 5 μM [1- ^3H]geranylgeranyl diphosphate following standard protocols (Croteau, R., and Cane, D. E. (1985) Methods Enzymol. 110:383-405; LaFever, R. E., Stofer Vogel, B., and Croteau, R. (1994) Arch. Biochem. Biophys. 313:139-149; Dehal, S. S., and Croteau, R. (1988) Arch. Biochem. Biophys. 261:346-356). In the case of the monoterpene synthase and sesquiterpene synthase assays, the incubation mixture was overlaid with 1 ml pentane to trap volatile products. In all cases, after incubation at 31° C. for 2 h, the reaction mixture was extracted with pentane (3×1 ml) and the combined extract was passed through a 1.5 ml column of anhydrous MgSO4 and silica gel (Mallinckrodt 60 Å) to provide the terpene hydrocarbon fraction free of oxygenated metabolites. The columns were subsequently eluted with 3×1 ml of ether to collect any oxygenated products, and an aliquot of each fraction was taken for liquid scintillation counting to determine conversion rate.
Product Identification—To obtain sufficient product for analysis by radio-GLC (gas liquid chromatography), chiral capillary GLC and GLC-MS (mass spectrum/spectrometry), preparative-scale enzyme incubations were carried out. Thus, the enzyme was prepared from 50 ml of cultured bacterial cells by extraction with 3 ml of assay buffer as above, and the extracts were incubated with excess substrate overnight at 31° C. The hydrocarbon fraction was isolated by elution through MgSO4-silica gel as before, and the pentane eluate was concentrated for evaluation by capillary radio-GLC as described (Croteau, R., and Satterwhite, D. M. (1990) J. Chromatogr. 500:349-354), by chiral column capillary GLC (Lewinsohn, E., Savage, T. J., Gijzen, M., and Croteau, R. (1993) Phytochem. Anal. 4:220-225), and by combined GLC-MS [Hewlett-Packard 6890 GC-MSD with cool (40° C.) on-column injection, detection via electron impact ionization (70 eV), He carrier at 0.7 psi., column:0.25 mm i.d.×30 m fused silica with 0.25 μm film of 5MS (Hewlett-Packard) programmed from 35° C. (5 min hold) to 230° C. at 5° C./min].

[2] = Terpene synthase assay and GC-MS / chiral GC product identification of recombinant enzymes expressed from pSBET in E. coli BL21(DE3) (Example 11); format: biochemical; details: extracts of induced cells
Protocol: For functional expression, bacterial strains E. coli BL21(DE3)/pSAG2(M), E. coli BL21(DE3)/pSAG2(R), E. coli BL21(DE3)/pSAG3(R), E. coli BL21(DE3)/pSAG6(M), E. coli BL21(DE3/pSAG6(R), E. coli BL21(DE3)/pSAG8(M), E. coli BL21(DE3)/pSAG9(M), E. coli BL21(DE3)/pSAG11(M) and E. coli BL21(DE3)/SAG11(R) were grown to A600=0.5 at 37° C. in 5 ml of Luria-Bertani medium (Sambrook, J., Fritsch, E. F., and Maniatis, T. (1989) Molecular Cloning: A Laboratory Manual, 2nd Ed., pp. 7.20-7.43, Cold Spring Harbor, N.Y.) supplemented with 30 μg kanamycin/ml. Cultures were then induced by addition of 1 mM isopropyl-1-thio-β-D-galactopyranoside and grown for another 12 h at 20° C. Cells were harvested by centrifugation and disrupted by sonication followed by centrifugation, and the resulting soluble enzyme preparations were assayed for monoterpene, sesquiterpene and diterpene synthase activity using the appropriate radiolabeled substrate as described previously (Bohlmann, J., Steele, C. L., and Croteau, R. (1997) J. Biol. Chem. 272, 21784-21792). This assay involves the isolation and separation of terpene olefins and oxygenated terpenes by column chromatography on silica, followed by scintillation counting to determine conversion rate. GC-MS analysis is employed for product identification, by comparison of retention times and mass spectra to those of authentic standards (Bohlmann, J., Steele, C. L., and Croteau, R. (1997) J. Biol Chem. 272, 21784-21792); assignment of absolute configuration is based upon chiral column capillary GC and matching of retention time to that of the corresponding enantiomer (Lewinsohn, E., Savage, T. J., Gijzen, M., and Croteau, R. (1993) Phytochem. Anal. 4, 220-225). To insure production of sufficient material for identification, the standard assay (Bohlmann, J., Steele, C. L., and Croteau, R. (1997) J. Biol. Chem. 272, 21784-21792) was scaled up by a factor of 20.
Initially, the four pSBET plasmids pSAG6(M), pSAG8(M), pSAG9(M) and pSAG11(M), containing the full-length cDNA inserts of ag6 (SEQ ID NO:64), ag8 (SEQ ID NO:66), ag9 (SEQ ID NO:77) and ag11 (SEQ ID NO:68), respectively, were expressed in E. coli BL21(DE3). Extracts of the induced, transformed bacterial cells were assayed for monoterpene, sesquiterpene and diterpene synthase activity using the corresponding labeled C10, C15 and C20 prenyl diphosphate substrates (Bohlmann, J., Steele, C. L., and Croteau, R. (1997) J. Biol. Chem. 272, 21784-21792). […] Since it is known that the relatively large amino-terminal transit peptide of plant terpene synthases can impair expression of the functional preprotein in E. coli and promote the formation of intractable inclusion bodies (Williams, D. C., McGarvey, D. J., Katahira, E. J., and Croteau, R. (1998) Biochemisiry 37, 12213-12220), the“pseudomature” forms of ag6 (SEQ ID NO:64) and ag11 (SEQ ID NO:68) were prepared by truncation of the cDNAs to insert a starting methionine immediately upstream of their tandem arginine elements (R59R 60 for ag6 (SEQ ID NO:64), R^71R^72 for ag11 (SEQ ID NO:68)) for expression in E. coli BL21(DE3)/pSAG6(R) and E. coli BL21(DE3)/pSAG11(R). Similar truncations of previously characterized ag2.2 (SEQ ID NO:1) (myrcene synthase, R^64R^65) and ag3.18 (SEQ ID NO:3) ((−)-pinene synthase, (SEQ ID NO:5) R^64R^65) (Bohlmann, J., Steele, C. L., and Croteau, R. (1997) J. Biol. Chem. 272, 21784-21792) were prepared for expression from pSBET as controls for the possible alteration of product yield and distribution resulting from truncation.
Monoterpenes generated at preparative scale from geranyl diphosphate by the recombinant enzymes encoded by ag6 (SEQ ID NO:64), ag8 (SEQ ID NO:66), ag9 (SEQ ID NO:77) and ag11 (SEQ ID NO:68) were analyzed by GC-MS and chiral phase (β-cyclodextrin) capillary GC, and identified by comparison of retention times and mass spectra to authentic standards (FIGS. 6-9). […] The enzyme encoded by ag6 (SEQ ID NO:65) is therefore designated as (−)-1S,4R-camphene synthase. […]

B1: AG2.2: recombinant myrcene synthase from Grand fir encoded by cDNA clone AG2.2 (SEQ ID NO:1; protein SEQ ID NO:2) (protein, listed as Abies grandis)
chain: MALVSISPLASKSCLRKSLISSIHEHKPPYRTIPNLGMRRRGKSVTPSMSISLATAAPDDGVQRRIGDYHSNIWDDDFIQSLSTPYGEPSYQERAERLIVEVKKIFNSMYLDDGRLMSSFNDLMQRLWIVDSVERLGIARHFKNEITSALDYVFRYWEENGIGCGRDSIVTDLNSTALGFRTLRLHGYTVSPEVLKAFQDQNGQFVCSPGQTEGEIRSVLNLYRASLIAFPGEKVMEEAEIFSTRYLKEALQKIPVSALSQEIKFVMEYGWHTNLPRLEARNYIDTLEKDTSAWLNKNAGKKLLELAKLEFNIFNSLQQKELQYLLRWWKESDLPKLTFARHRHVEFYTLASCIAIDPKHSAFRLGFAKMCHLVTVLDDIYDTFGTIDELELFTSAIKRWNSSEIEHLPEYMKCVYMVVFETVNELTREAEKTQGRNTLNYVRKAWEAYFDSYMEEAKWISNGYLPMFEEYHENGKVSSAYRVATLQPILTLNAWLPDYILKGIDFPSRFNDLASSFLRLRGDTRCYKADRDRGEEASCISCYMKDNPGSTEEDALNHINAMVNDIIKELNWELLRSNDNIPMLAKKHAFDITRALHHLYIYRDGFSVANKETKKLVMETLLESMLF
In the case of B1, the “prenyl diphosphate substrate utilized (geranyl, farnesyl, geranylgeranyl diphosphate tested)” value ([1]; cell-free extract of induced E. coli, tritium labeled substrates) is reported as “only with geranyl diphosphate as substrate”, the “monoterpene products formed from geranyl diphosphate” value ([1]; radio-GLC, GLC-MS, chiral GLC) is reported as “the only product was shown to be myrcene” and the “terpene synthase activity on expression from pSBET in E. coli BL21(DE3)” value [2] is reported as “high level expression of activity”.
